Data as given in patent publication US20210324028A1 (Pfizer, published 2021).
Like-named read-outs stand apart in the source and are kept apart here.

T1: human CD122/CD132 on cells of human PBMCs (human, UniProt P14784 27-551; P31785 23-369)
T1 sequence (looked up) 1: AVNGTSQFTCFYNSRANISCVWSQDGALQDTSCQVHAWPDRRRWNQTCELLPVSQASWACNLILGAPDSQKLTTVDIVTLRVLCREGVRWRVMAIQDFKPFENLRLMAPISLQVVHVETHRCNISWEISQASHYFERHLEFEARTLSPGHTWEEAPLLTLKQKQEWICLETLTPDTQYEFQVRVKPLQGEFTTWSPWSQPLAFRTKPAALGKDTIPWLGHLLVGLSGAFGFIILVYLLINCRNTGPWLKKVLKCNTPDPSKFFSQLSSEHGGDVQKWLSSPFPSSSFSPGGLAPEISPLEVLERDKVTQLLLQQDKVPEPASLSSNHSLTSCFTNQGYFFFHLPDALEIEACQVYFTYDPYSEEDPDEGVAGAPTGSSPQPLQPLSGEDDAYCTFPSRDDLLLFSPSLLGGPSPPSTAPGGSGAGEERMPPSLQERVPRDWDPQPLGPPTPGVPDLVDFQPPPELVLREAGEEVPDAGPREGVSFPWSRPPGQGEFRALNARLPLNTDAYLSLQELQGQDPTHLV
T1 sequence (looked up) 2: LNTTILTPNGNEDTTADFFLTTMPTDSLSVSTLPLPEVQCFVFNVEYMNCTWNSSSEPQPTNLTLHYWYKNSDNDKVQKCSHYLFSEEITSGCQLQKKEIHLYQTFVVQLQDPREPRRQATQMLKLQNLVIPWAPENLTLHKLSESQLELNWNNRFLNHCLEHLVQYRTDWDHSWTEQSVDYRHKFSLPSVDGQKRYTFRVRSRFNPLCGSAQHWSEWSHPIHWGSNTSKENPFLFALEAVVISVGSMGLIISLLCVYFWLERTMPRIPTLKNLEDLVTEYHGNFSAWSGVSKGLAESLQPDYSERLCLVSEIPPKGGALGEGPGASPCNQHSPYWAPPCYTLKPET

T2: human IL-2Rβ (human, UniProt P14784 27-240, limits assumed)
T2 construct: also called hIL-2Rβ; IL-2 receptor beta
T2 sequence (looked up): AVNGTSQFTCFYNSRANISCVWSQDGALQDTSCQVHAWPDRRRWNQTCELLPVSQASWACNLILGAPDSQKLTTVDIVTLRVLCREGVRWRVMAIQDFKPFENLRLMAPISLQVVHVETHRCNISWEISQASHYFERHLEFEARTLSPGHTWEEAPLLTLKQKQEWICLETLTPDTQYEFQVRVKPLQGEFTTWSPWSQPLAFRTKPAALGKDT

T3: mouse PD-1 on doxycycline-induced 32D[pRF770+pRF791] cells (mouse, UniProt Q02242 25-288)
T3 sequence (looked up): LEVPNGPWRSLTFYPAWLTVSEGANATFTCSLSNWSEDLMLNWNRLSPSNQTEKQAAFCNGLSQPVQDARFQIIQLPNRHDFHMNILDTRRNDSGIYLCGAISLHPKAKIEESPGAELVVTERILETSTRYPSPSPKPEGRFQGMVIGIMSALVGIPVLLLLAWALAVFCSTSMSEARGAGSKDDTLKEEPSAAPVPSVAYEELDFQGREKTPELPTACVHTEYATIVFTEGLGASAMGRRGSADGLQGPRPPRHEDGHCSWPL

T4: IL-15 signaling receptor on 32D[pRF770+pRF791] cells (human CD122 plus mouse CD132) (human; mouse, UniProt P14784 27-551; P34902 23-369)
T4 sequence (looked up) 1: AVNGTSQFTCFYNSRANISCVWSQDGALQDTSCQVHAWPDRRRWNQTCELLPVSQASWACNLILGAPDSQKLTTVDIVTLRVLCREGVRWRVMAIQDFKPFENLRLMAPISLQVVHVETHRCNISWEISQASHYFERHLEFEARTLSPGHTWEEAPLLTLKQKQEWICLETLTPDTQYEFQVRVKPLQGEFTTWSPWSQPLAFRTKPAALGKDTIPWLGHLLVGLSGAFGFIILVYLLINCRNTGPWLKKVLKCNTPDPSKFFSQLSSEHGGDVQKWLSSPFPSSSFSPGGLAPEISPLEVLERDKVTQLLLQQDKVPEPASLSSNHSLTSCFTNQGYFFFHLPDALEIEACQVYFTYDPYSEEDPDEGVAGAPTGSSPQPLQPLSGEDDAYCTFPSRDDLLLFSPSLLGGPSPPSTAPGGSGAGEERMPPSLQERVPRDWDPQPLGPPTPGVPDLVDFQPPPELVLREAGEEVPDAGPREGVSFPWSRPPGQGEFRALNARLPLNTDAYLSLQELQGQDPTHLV
T4 sequence (looked up) 2: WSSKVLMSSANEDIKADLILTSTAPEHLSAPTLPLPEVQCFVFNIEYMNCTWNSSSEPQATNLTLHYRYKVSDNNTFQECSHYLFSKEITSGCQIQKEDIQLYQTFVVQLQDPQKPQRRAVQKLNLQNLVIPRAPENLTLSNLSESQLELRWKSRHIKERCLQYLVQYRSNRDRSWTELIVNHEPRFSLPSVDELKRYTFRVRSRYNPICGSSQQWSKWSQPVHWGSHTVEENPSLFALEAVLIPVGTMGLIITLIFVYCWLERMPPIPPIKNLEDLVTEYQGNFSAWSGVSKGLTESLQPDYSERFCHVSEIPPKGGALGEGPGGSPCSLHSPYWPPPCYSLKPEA


Key:
[1] = target: human PD-1 on cells of human PBMCs (human, UniProt Q15116 25-288); assay: cell-based or functional assay
Sequence of human PD-1 on cells of human PBMCs (Q15116 25-288): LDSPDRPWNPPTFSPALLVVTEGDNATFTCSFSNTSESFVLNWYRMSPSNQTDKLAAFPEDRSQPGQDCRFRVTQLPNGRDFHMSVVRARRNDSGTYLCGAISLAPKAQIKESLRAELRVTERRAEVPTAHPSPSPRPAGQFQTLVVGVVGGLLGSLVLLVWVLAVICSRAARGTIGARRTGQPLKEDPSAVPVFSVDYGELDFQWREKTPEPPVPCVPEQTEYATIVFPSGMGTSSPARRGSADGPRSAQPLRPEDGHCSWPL

[2] = target: T1, human CD122/CD132 on cells of human …; assay: cell-based or functional assay
human IL-2Rβ [3] = target: T2, human IL-2Rβ; assay: SPR, fusion captured
Summary of the method: (§1)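 Anti-PD-1–hIL-15 fusions captured at 10 μg/mL on an anti-human Fc surface, receptor injected at 37 °C in HEPES-buffered saline with 0.05% Tween-20 and 1 mg/mL BSA, pH 7.4; 5 min dissociation.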

[4] = target: T3, mouse PD-1 on doxycycline-induced …; assay: cell-based or functional assay
[5] = target: T4, IL-15 signaling receptor on …; assay: cell-based or functional assay
human IL-15Rα = target: T5, human IL-15Rα (human, UniProt Q13261 31-205, limits assumed); assay: SPR 37C, fusion captured by anti-human Fc
T5 construct: also called hIL-15Rα; IL-15 receptor alpha
T5 sequence (Q13261 31-205 limits assumed): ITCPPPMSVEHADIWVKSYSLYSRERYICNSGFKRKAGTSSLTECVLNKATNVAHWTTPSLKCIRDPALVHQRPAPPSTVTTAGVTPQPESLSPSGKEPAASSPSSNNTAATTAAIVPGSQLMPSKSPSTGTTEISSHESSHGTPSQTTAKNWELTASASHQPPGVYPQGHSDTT
Summary of the method: as §1

[6] = target: T3, mouse PD-1 on doxycycline-induced …; assay: cell-based or functional assay; remark: listed apart in the source
[7] = target: T4, IL-15 signaling receptor on …; assay: cell-based or functional assay; remark: listed apart in the source
human IL-2Rβ [8] = target: T2, human IL-2Rβ; assay: SPR, steady state, fusion captured
Summary of the method: as §1

Row | Fold change = EC50 (Isotype control--IL15)/EC50 (xhPD1--IL15), CD8+cm T cells [1] | Fold change = EC50 (Isotype control--IL15)/EC50 (xhPD1--IL15), NK cells [1] | pSTAT5 EC50 on human CD8+cm T cells (hPBMC) [1] | pSTAT5 EC50 on human NK cells (hPBMC) [2] | binding result (human IL-15Rα) | Binder | other results
1 | 47 fold | 1.99 fold | 78 pM | 0.475 nM | – | xhPD-1-IL15 m1 (other) heavy 1: not shown heavy 2: not shown light: DIQMTQSPSSLSASVGDRVTITCKSSQSLWDSGNQKNFLTWYQQKPGKAPKLLIYWTSYRESGVPSRFSGSGSGTDFTLTISSLQPEDFATYYCQNDYFYPLTFGGGTKVEIKRTVAAPSVFIFPPSDEQLKSGTASVVCLLNNFYPREAKVQWKVDNALQSGNSQESVTEQDSKDSTYSLSSTLTLSKADYEKHKVYACEVTHQGLSSPVTKSFNRGEC | –
2 | 76.5 fold | 1.36 fold | 0.492 nM | 8.27 nM | – | xhPD-1-IL15 m2 (other) heavy 1: not shown heavy 2: not shown light: DIQMTQSPSSLSASVGDRVTITCKSSQSLWDSGNQKNFLTWYQQKPGKAPKLLIYWTSYRESGVPSRFSGSGSGTDFTLTISSLQPEDFATYYCQNDYFYPLTFGGGTKVEIKRTVAAPSVFIFPPSDEQLKSGTASVVCLLNNFYPREAKVQWKVDNALQSGNSQESVTEQDSKDSTYSLSSTLTLSKADYEKHKVYACEVTHQGLSSPVTKSFNRGEC | –
3 | – | – | – | – | no binding (tested: 3000 nM) | xmPD-1-hIL15 V49R/Y26K/E64Q/D30N (other, not restated for this mutant; also called xmPD1 -V49R/Y26K/E64Q/D30N) heavy 1: HHHHHHHHGGGGSGSGGEVQLVESGGGLVKPGGSLELSCAASGFTFSSYWMSWVRQAPEKGLEWVAAISPSGGSTYYADSVKGRFTISRDNAKNTLFLQMTSLRSEDTAMYYCAKESWGAYYDLWGQGTTVTVSSASTKGPSVFPLAPCSRSTSESTAALGCLVKDYFPEPVTVSWNSGALTSGVHTFPAVLQSSGLYSLSSVVTVPSSNFGTQTYTCNVDHKPSNTKVDKTVERKCRVRCPRCPAPPVAGPSVFLFPPKPKDTLMISRTPEVTCVVVAVSHEDPEVQFNWYVDGVEVHNAKTKPREEQFNSTFRVVSVLTVVHQDWLNGKEYKCKVSNKGLPSSIEKTISKTKGQPREPQVYTLPPSREEMTKNQVSLTCLVKGFYPSDIAVEWESNGQPENNYKTTPPMLDSDGSFFLYSRLTVDKSRWQQGNVFSCSVMHEALHNHYTQKSLSLSPGK heavy 2: EVQLVESGGGLVKPGGSLELSCAASGFTFSSYWMSWVRQAPEKGLEWVAAISPSGGSTYYADSVKGRFTISRDNAKNTLFLQMTSLRSEDTAMYYCAKESWGAYYDLWGQGTTVTVSSASTKGPSVFPLAPCSRSTSESTAALGCLVKDYFPEPVTVSWNSGALTSGVHTFPAVLQSSGLYSLSSVVTVPSSNFGTQTYTCNVDHKPSNTKVDKTVERKCEVECPECPAPPVAGPSVFLFPPKPKDTLMISRTPEVTCVVVAVSHEDPEVQFNWYVDGVEVHNAKTKPREEQFNSTFRVVSVLTVVHQDWLNGKEYKCKVSNKGLPSSIEKTISKTKGQPREPQVYTLPPSREEMTKNQVSLTCEVKGFYPSDIAVEWESNGQPENNYKTTPPMLDSDGSFFLYSKLTVDKSRWQQGNVFSCSVMHEALHNHYTQKSLSLSPGSGGGGGTSATATPGANWVNVISDLKKIEDLIQSMHIDATLKTESNVHPSCKVTAMKCFLLELQRISLESGDASIHDTVQNLIILANNSLSSNGNVTESGCKECEELEEKNIKEFLQSFVHIVQMFINT light: DIVMTQSPSSLSVSAGDKVTMSCRASQGISSWLAWYQQKPWQPPKLLIYKASTLESGVPDRFTGSGSGTDFTLTISSVQAEDLAVYYCQQSYSTPWTFGGGTKLEIKGTVAAPSVFIFPPSDEQLKSGTASVVCLLNNFYPREAKVQWKVDNALQSGNSQESVTEQDSKDSTYSLSSTLTLSKADYEKHKVYACEVTHQGLSSPVTKSFNRGEC | Kd (human IL-2Rβ [3]): > 1500 nM; Fold change = EC50 (PD-1(low))/EC50 (PD-1+) [4]: 382 fold; pSTAT5 EC50 on PD-1+ 32D reporter cells [4]: 56.1 pM; pSTAT5 EC50 on PD-1(low) 32D reporter cells [5]: 21.4 nM
4 | – | – | – | – | no binding (tested: 3000 nM) | xmPD-1-IL15 m1 (other, also called xmPD-1-hIL15 V49R/E46G/N1A/D30N) heavy 1: EVQLVESGGGLVKPGGSLELSCAASGFTFSSYWMSWVRQAPEKGLEWVAAISPSGGSTYYADSVKGRFTISRDNAKNTLFLQMTSLRSEDTAMYYCAKESWGAYYDLWGQGTTVTVSSASTKGPSVFPLAPSSKSTSGGTAALGCLVKDYFPEPVTVSWNSGALTSGVHTFPAVLQSSGLYSLSSVVTVPSSSLGTQTYICNVNHKPSNTKVDKKVEPKSCDKTHTCPPCPAPEAAGAPSVFLFPPKPKDTLMISRTPEVTCVVVDVSHEDPEVKFNWYVDGVEVHNAKTKPREEQYNSTYRVVSVLTVLHQDWLNGKEYKCKVSNKALPAPIEKTISKAKGQPREPQVYTLPPCREEMTKNQVSLSCAVKGFYPSDIAVEWESNGQPENNYKTTPPVLDSDGSFFLVSKLTVDKSRWQQGNVFSCSVMHEALHNHYTQKSLSLSPGSGGGGSGGGGSGGGGAWVNVISDLKKIEDLIQSMHIDATLYTESNVHPSCKVTAMKCFLLGLQRISLESGDASIHDTVENLIILANNSLSSNGNVTESGCKECEELEEKNIKEFLQSFVHIVQMFINTS heavy 2: EVQLVESGGGLVKPGGSLELSCAASGFTFSSYWMSWVRQAPEKGLEWVAAISPSGGSTYYADSVKGRFTISRDNAKNTLFLQMTSLRSEDTAMYYCAKESWGAYYDLWGQGTTVTVSSASTKGPSVFPLAPSSKSTSGGTAALGCLVKDYFPEPVTVSWNSGALTSGVHTFPAVLQSSGLYSLSSVVTVPSSSLGTQTYICNVNHKPSNTKVDKKVEPKSCDKTHTCPPCPAPEAAGAPSVFLFPPKPKDTLMISRTPEVTCVVVDVSHEDPEVKFNWYVDGVEVHNAKTKPREEQYNSTYRVVSVLTVLHQDWLNGKEYKCKVSNKALPAPIEKTISKAKGQPREPQVCTLPPSREEMTKNQVSLWCLVKGFYPSDIAVEWESNGQPENNYKTTPPVLDSDGSFFLYSKLTVDKSRWQQGNVFSCSVMHEALHNHYTQKSLSLSPGK light: DIVMTQSPSSLSVSAGDKVTMSCRASQGISSWLAWYQQKPWQPPKLLIYKASTLESGVPDRFTGSGSGTDFTLTISSVQAEDLAVYYCQQSYSTPWTFGGGTKLEIKGTVAAPSVFIFPPSDEQLKSGTASVVCLLNNFYPREAKVQWKVDNALQSGNSQESVTEQDSKDSTYSLSSTLTLSKADYEKHKVYACEVTHQGLSSPVTKSFNRGEC | Fold change = EC50 (PD-1(low))/EC50 (PD-1+) [6]: 1450 fold; pSTAT5 EC50 on PD-1+ 32D reporter cells [6]: 53.1 pM; pSTAT5 EC50 on PD-1(low) 32D reporter cells [7]: 76.9 nM; Kd (human IL-2Rβ [8]): 433 nM
